Laboratory results from PMC5842915 (Biochemistry, 2017).
Several values for one entry are separate records, joined by “and”; a condition that tells them apart may be missing. Equal entries are not always repeated. Where two headings read alike, the source gives them in different places.

Assays:
[1] = molecular target: Bcl-2 (Homo sapiens) (UniProt P10415); details: cited from earlier work
[2] = molecular target: BECN1 CC CC (Homo sapiens) (UniProt Q14457); details: cited from earlier work
[3] = molecular target: Bcl-2 (Homo sapiens) (UniProt P10415); details: cited from earlier work; remark: listed apart in the source
[4] = molecular target: BECN^1-265 (BECN1 residues 1-265, BARA-less construct) (human) (UniProt Q14457); assay: AUC
[5] = molecular target: V250A/M254A/L261A mutant of full-length BECN1 (human) (UniProt Q14457); assay: AUC
[6] = molecular target: human Bcl-2 (residues 1-218) (human, UniProt P10415 1-218); assay: ITC
human Bcl-2 (residues 1-218), sequence (P10415 1-218): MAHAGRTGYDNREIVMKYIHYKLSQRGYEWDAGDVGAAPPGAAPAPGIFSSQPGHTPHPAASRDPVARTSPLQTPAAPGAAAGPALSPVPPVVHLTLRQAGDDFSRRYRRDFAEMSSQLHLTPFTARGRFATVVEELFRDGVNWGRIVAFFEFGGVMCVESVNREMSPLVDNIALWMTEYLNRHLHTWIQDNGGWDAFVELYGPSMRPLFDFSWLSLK

BECN1 CC CC, sequence (Q14457 175-265): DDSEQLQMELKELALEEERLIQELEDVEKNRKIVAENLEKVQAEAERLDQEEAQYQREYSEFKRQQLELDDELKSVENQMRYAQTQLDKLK
Bcl-2 (Homo sapiens), sequence (P10415 whole entry, the tested form may be a part): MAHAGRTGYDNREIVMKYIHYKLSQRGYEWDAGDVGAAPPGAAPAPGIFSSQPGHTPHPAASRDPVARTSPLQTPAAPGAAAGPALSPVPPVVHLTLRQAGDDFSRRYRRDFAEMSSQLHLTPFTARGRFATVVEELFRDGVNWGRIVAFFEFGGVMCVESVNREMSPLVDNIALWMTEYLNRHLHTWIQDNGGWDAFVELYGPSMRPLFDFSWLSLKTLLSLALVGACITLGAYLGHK
BECN1 IDR 1-135, sequence (Q14457 1-135): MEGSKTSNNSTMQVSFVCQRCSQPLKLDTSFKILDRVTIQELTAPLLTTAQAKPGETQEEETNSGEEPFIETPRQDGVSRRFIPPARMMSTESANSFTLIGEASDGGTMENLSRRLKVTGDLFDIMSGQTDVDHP
BECN1 BH3 peptide 105-130, sequence (Q14457 105-130): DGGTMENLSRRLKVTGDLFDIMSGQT

BECN1 BH3 peptide 105-130 (from UniProt Q14457)
Kd [1]: 8 µM

BECN1 CC CC (from UniProt Q14457)
Kd [2]: 48 µM and 45 µM

BECN1 IDR 1-135 (from UniProt Q14457)
Kd [3]: 8.6 µM

BECN^1-265 (BECN1 residues 1-265, BARA-less construct) (from UniProt Q14457 1-265) (domain or fragment)
Kd [4]: 1.35 µM

V250A/M254A/L261A mutant of full-length BECN1 (from UniProt Q14457 1-450) (natural protein)
Kd [5]: 1.86 µM

FTLIGEASDGGTMENLSRRLKVTGDLFDIM [BECN1 BH3 peptide (residues 97-126)]
Kd [6]: 9.6 µM
